{
  "source": "paper PMC11117022",
  "about": "(Advanced Healthcare Materials, 2022)",
  "proteins": {"B1": {"name": "mouse SIINFEKL‐STINGΔTM (other, chicken | mouse)", "chain": "GLEQLESIINFEKLTEWTSSLTPAEVSAVCEEKKLNVAHGLAWSYYIGYLRLILPGLQARIRMFNQLHNNMLSGAGSRRLYILFPLDCGVPDNLSVVDPNIRFRDMLPQQNIDRAGIKNRVYSNSVYEILENGQPAGVCILEYATPLQTLFAMSQDAKAGFSREDRLEQAKLFCRTLEEILEDVPESRNNCRLIVYQEPTDGNSFSLSQEVLRHIRQEEKEEVTMNAPMTSVAPPPSVLSQEPRLLISGMDQPLPLRTDLI"}},
  "key": {"[1]": {"target": "the molecule itself", "test": "SEC"}, "[2]": {"target": "the molecule itself", "test": "SEC", "remark": "listed apart in the source"}},
  "note": "Where two headings read alike, the source gives them in different places.",
  "data": [
    {"protein": "B1", "values": [
      {"measurement": "stoichiometry N", "setting": "[1]", "result": 2},
      {"measurement": "stoichiometry N", "setting": "[2]", "result": 4}
    ]}
  ]
}
